How the values were obtained:
Experiment in all cases: EMSA
[1] = target: recombinant human integrin α6β4 (Homo sapiens, UniProt P23229;P16144 24-1050;28-710)
[2] = target: recombinant human integrin α6β1 (Homo sapiens, UniProt P23229;P05556 24-1050;21-728)
[3] = target: recombinant murine integrin α6β4 (Mus musculus, UniProt Q61739;A2A863 24-1011;29-712)

Measured: binding result

recombinant human integrin α6β4, sequence (P23229 24-1050, chain 1 of 2): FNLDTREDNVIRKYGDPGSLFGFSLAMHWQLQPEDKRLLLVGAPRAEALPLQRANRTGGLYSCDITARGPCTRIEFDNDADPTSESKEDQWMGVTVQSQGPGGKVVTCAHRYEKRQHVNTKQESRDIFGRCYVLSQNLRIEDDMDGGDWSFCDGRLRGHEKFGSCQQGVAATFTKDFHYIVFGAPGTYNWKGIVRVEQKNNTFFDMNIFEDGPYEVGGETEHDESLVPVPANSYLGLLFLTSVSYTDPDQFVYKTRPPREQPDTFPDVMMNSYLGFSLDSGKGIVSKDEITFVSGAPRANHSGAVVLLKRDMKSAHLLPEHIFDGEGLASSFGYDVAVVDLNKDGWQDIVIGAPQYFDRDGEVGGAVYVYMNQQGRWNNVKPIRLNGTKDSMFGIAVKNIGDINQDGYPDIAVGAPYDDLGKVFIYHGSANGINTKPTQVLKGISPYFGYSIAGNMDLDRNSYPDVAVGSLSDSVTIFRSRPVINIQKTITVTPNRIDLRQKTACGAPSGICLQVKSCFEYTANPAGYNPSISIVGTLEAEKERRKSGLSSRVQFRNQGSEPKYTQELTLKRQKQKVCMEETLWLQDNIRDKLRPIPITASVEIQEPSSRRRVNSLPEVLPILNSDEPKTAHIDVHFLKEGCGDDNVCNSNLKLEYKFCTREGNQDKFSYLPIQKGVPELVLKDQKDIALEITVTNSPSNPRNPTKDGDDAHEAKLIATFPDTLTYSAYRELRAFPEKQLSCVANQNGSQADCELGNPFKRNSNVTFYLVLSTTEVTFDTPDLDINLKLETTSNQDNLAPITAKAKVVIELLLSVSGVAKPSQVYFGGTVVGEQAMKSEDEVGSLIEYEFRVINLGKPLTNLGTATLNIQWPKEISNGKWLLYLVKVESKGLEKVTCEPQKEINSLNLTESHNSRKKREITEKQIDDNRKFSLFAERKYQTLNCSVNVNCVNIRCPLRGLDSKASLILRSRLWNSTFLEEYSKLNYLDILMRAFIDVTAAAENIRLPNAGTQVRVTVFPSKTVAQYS
recombinant human integrin α6β4, sequence (P16144 28-710, chain 2 of 2): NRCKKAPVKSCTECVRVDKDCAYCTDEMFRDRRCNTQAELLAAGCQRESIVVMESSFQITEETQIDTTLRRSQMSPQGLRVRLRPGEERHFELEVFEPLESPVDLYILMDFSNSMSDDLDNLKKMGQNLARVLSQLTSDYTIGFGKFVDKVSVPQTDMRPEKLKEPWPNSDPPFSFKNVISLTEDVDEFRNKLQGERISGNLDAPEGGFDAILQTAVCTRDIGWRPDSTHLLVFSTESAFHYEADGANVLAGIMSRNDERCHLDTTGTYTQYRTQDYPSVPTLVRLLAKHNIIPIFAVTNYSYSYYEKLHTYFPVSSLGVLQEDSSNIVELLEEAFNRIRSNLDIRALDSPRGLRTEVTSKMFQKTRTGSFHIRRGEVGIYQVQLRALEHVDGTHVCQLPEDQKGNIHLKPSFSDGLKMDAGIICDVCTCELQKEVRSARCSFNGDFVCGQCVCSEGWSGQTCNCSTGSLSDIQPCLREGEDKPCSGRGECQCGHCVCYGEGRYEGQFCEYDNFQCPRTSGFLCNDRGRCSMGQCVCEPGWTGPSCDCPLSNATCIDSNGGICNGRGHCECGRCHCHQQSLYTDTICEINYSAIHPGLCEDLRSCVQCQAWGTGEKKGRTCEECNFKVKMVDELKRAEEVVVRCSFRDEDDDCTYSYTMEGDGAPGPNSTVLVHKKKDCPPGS
recombinant human integrin α6β1, sequence (P23229 24-1050, chain 1 of 2): as the sequence (P23229 24-1050, chain 1 of 2) above
recombinant human integrin α6β1, sequence (P05556 21-728, chain 2 of 2): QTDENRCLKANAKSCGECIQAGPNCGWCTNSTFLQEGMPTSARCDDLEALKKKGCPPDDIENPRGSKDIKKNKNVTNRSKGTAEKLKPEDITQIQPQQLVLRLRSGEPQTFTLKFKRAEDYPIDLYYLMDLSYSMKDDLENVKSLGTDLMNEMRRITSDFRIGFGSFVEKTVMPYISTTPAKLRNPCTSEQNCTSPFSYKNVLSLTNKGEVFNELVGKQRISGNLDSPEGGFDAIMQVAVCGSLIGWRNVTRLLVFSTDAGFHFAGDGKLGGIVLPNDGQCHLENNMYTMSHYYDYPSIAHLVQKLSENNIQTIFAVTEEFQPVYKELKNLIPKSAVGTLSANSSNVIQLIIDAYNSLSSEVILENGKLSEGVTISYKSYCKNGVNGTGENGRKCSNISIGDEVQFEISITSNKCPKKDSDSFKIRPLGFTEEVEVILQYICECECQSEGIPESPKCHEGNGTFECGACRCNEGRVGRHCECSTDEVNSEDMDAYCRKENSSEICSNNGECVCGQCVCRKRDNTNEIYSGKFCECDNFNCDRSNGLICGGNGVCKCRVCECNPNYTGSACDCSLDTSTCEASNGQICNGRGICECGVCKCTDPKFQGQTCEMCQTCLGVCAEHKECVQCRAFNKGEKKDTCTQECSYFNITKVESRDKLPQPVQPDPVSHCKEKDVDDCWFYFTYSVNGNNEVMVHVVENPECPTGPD
recombinant murine integrin α6β4, sequence (Q61739 24-1011, chain 1 of 2): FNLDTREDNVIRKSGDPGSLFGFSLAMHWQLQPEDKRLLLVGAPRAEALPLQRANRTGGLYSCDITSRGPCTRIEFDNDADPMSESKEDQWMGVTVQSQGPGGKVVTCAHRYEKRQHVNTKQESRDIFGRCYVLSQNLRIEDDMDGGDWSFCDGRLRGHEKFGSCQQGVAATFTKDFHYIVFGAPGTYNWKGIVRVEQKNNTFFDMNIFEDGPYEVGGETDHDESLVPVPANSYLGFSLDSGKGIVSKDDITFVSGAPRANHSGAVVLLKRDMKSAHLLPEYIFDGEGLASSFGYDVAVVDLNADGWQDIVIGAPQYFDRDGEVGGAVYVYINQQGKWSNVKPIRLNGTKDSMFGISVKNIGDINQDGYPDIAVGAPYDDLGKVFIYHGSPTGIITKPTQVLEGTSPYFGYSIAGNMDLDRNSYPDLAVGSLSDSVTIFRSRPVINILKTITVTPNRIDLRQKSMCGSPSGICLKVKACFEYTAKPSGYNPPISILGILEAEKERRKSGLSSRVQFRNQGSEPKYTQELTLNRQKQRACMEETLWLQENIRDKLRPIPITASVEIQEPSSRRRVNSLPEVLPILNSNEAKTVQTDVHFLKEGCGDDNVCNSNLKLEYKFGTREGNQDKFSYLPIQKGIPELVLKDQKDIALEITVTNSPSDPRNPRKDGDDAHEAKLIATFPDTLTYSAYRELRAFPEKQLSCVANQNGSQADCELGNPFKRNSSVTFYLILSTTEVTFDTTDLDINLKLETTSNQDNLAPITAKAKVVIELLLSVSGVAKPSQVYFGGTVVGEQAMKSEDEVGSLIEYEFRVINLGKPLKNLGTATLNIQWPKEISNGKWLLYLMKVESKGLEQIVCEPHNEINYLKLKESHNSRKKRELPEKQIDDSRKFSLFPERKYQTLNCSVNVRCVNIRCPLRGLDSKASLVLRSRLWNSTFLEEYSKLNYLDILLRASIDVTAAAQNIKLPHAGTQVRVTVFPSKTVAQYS
recombinant murine integrin α6β4, sequence (A2A863 29-712, chain 2 of 2): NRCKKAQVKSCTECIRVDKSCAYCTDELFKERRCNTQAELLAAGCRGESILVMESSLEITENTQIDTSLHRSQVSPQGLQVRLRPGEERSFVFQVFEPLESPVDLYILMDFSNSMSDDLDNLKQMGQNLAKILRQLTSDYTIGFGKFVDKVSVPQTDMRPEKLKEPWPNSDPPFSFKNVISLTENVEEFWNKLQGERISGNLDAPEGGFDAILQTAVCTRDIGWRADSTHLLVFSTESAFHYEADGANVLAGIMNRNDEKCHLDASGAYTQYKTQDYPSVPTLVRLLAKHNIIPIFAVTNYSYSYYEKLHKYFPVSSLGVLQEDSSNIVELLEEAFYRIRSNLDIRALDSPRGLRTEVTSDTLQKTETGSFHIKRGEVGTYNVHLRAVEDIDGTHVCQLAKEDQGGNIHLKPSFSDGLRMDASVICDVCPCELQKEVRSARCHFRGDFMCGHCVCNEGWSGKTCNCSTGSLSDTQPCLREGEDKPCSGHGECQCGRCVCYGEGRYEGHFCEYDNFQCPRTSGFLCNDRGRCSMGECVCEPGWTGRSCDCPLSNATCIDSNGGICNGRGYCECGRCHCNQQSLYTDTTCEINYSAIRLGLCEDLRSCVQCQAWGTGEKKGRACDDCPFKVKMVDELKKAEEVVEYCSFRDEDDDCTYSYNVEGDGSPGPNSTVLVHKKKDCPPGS

B1: IDA (nc28) (ssDNA)
DNA: GCCTGTTGTGAGCCTCCTAACCGTGCGTATTCGTACTGGAACTGATATCGATGTCCCCATGCTTATTCTTGTCTCCC
binds: all assays above
